Fewer inactive variants are shown than the library holds.

B1: TPR 5TU (parent)
chain: GGAUCUUCUCGAUCUAACAAAAAAGACAAAUCUGCCACAAAGCUUGAGAGCAUCUUCGGAUGCAGAGGCGGCAGCCUUCGGUGGCGCGAUAGCGCCAACGUUCUCAACUAUGACACGCAAAACGCGUGCUCCGUUGAAUGGAGUUUAUCAUG

In this data set the parent is B1. Description: polymerase ribozyme fitness, log enrichment relative to wild type (log ratio); higher = more active; in vitro selection for triplet polymerase activity. Put shortly: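 Each subunit of a heterodimeric triplet polymerase ribozyme was represented by a PCR-built, transcribed mutant library that underwent triplicate single-round in vitro selection with frozen incubation at −7 °C. Extended constructs were recovered by gel excision, streptavidin-bead capture and RT-PCR, and Illumina sequencing of input and output libraries kept genotypes with ≥10 input reads and ≥1 read per output. Fitness is the logarithm of genotype enrichment relative to wild-type enrichment, from inverse-variance-weighted replicate averages, with a logarithm base of 2.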
For GGAUCUUCUCGAUCUAACAAAAAAGACAAAUCUGCCACAAAGCUUGAGAGCAUUAUCGGAUGCAGAGGCGGCAGCCUUCGGUGGCGAGAUAGCGCCAACGUUCUCAACUAUGACACGCAAAACGCGUGCUCCGUUGAAUGGAGUUUAUCAUG [C54U U55A C87A], the “polymerase ribozyme fitness (log ratio)” value was no more than -4.2.
Turning to GGAUCUUCUCGAUCUAACAAAAAAGACAAAUCUGCCACAAAGCUUGAGAGCAUCUUCGAAUGCAGAGGCGGCAGCCUUCGGUGGCUCGAUAGCGCCUACGUUCUCAAGUAUGACAGGCAAAACGCGUGCUCCGUUGAAUGGACUUUAUCAUG [G59A G86U A97U C108G C116G G143C], the “polymerase ribozyme fitness (log ratio)” value was no more than -4.2.
Then GGAUCUUCUCGAUCUAACAAAAAAGACAAAUCUCCCACAAAGCUUGAGAGCAUCUUCGGAUGCAGAGGCGGCAGCCUUCGGUGGCGCGAUAGCCCCAACGUUCUCAACUAUGACACGCAAAACGCGUGCUCCGUUGAAUGGAGUUUAUCAUG [G34C G94C], with -3.85; and GGAUCUUCUCGAUCUAACAAAAAAGACAAAUCUGCCACAAAGCUUGAGAGCAUCUUCGGAUGCAGAGGUGGCAGCCUUCGGUGGCGCGAUAGCGUCAACGGUCUCAACUAUGACACGCAAAACGCGUGCUCCGUUGAAUGGAGUUUAUCAUC [C69U C95U U101G G152C], with -3.5; and GGAUCUUCUCGAUCUAACAAAAAAGACAAAUCUGCCACAAAGCUUGAGAGCAUCUUCGGAUGCAGAGGCGGCAGCCUUCGGGGGCGCGAUAGCGCCAACGUUCUUAACUAUGACACGCAAAACGCGUGCUCCGUUGAAUGGAGUUUAUCAUG [U82G C105U], with 1.06.
Take GGAUCUUCUCGAUCUAACGAAAAAGAUAAAUCUGCCACAAAGCUUGAGAACAUCUUCGGAUGCAGAGGCGGCAGCCUUCGGUGGCGCGAUAGCGCCAACGUUCUCAACUAUGACACGCAAAACGCGUGCUCCGUUGAAUGGAGUUUAUCAUG [A19G C27U G50A]: the “polymerase ribozyme fitness (log ratio)” value is -4.19.
Turning to GGAUCUUCUCGAUCUAACAAAUAAGACAAAUCUGCCACAAAGCUUGAGAGCAUCUUCGGAUGCAGAGGCGGCAGCCUUCGGUGGCGCGAUAGCGCCAACGUUCUCAACUAUGACACGCAAAACGCGUGCUCCGUUGAAUGGAGUUUAUCAUA [A22U G152A], the “polymerase ribozyme fitness (log ratio)” value was -2.39.
Regarding GGAUCUUCUCGAUCUAACAAAAAAGACAAAUCUGCCACAAAGCUUGAAAGCAUGUUUGGAUGCAGAGGCGGCAGCCUUCGAUGGCGCGAUAGCGUCAACGUUCUCAACUAUGACUCGCAAAACGCGUGCUACGUUGAAUGGAGUUGAUCAUU [G48A C54G C57U G81A C95U A115U C131A U146G G152U], the “polymerase ribozyme fitness (log ratio)” value was no more than -4.2.
For the variant GGAUCUCCUCGAUCUAACAAAAAAGACAAAUCUGCCACAAAGCUUGAGAGCAUCUUCGGAUGCAGAGGCGGCAGCCUUCGGUGGCGCGAUAGGGCCAACGUUCUCAACUAUGACACGCAAAACGCGUGCUCCGUUGAAUGGAGUUUAUCAUG [U7C C93G], the “polymerase ribozyme fitness (log ratio)” value was -4.04.
Turning to GGAUCUUCUCGAUCUAACAAAAAAGACAAAUCUGUCACAAAGCUUGAGAGCAUCUUCGGCUGCAGAGGCGGCAGCCUUCGGUGGCGCGAUAGCGCCAUCGUUCUCAACUAUGACACGCAAAACGCGUGCUCCGUUGAAUGGGGUUUAUCAUG [C35U A60C A98U A142G], the “polymerase ribozyme fitness (log ratio)” value is -2.28.
On to GGAUCUUCUCGAUCUAACAAAAAAGACAAAUCUGCCACAAAGCUUGAGAGCAUCUUCGGAUGCAGAGGCGGCAGCCUUCGGUGGUGCGAUAGCGCCAACGUUCUCAACUAUGACACGCAAAACGCGUGCUCCGUUGAAUGGAGCUUAUCAUG [C85U U144C], for which the “polymerase ribozyme fitness (log ratio)” value is 0.118.
The value for GGAUCUUCUCGAUCUAACAAAAAAGACAAAUCUGCCACAAAGCUUGAGAGCAUCUUCGAAUGCAGAGGCGGCAGCCUUCGGUGGCGCGAUAGCGCCAACGUUCUCAACUAUGACACGCAAAACGCGUGCUCCGUUGACUGGAGUUCAUCGUG [G59A A138C U146C A150G] was no more than -4.2; that for GGAUCUUCUCGAUCUACCAAAAAACACAAAUCUGCCACAAAGCUUGAGAGCAUCUUCGGAUUCAGAGGCGGCAGCCUUCGGUGGCGCGAUAGCGCCAACGUUCUCAACUAUGACACGCAAAACGCGUGCUCCGUUGAAUGGAGUUUAUCAUG [A17C G25C G62U] was -3.17; that for GGAUCUUCUCGAUCUAACAAAAAAGACAAAUCUGCCACAAAGCUUGAGAGCAUCUUCGGAUGCAGAGGCGGCAGCCUUCGGUGGCGCGAUAGCGCCAACGUUCUCAACUAUGAGACGCAAAACGCGUGCUCCGUUGAAUUGAGUUUAUCAUG [C114G G140U] was -3.9.
For GGAUCUUCUCGAUCUUACAAAAAAUAUUAAUCUGCCACAAAGUUUGAGAGCAUCUUCGGAUGCAGAGGCGGCAGCCUUCGGUGGCGCGAUAGCCCCAAGGUUCUCAACUAUGACACGCAAAACGAGUGCUCCGUUGAAUGGAGUUUACCAGG [A16U G25U C27U A28U C43U G94C C99G C125A U148C U151G], the “polymerase ribozyme fitness (log ratio)” value is no more than -4.2.
GGAUCUUCACGUUCUAACAAAAAAGACAAAUCUGCCACAAAGCUUGAGAGCAUCUUCGGAUGCAGAGGCGGCAGCCUUCGGUGGCGCGAUAGCGCCAACGUUCUCAACUAUGAAACGCAAAACGAGUGCUCCGUUGAAUGGAGUUUAUCAUG [U9A A12U C114A C125A]: the “polymerase ribozyme fitness (log ratio)” value is no more than -4.2.
Then GGAUCUUCUCGAUCUAACAAAAAAGACAAAUCUGCCACAAAGCUUGAGAGCAUCUUCGGAUGCAGAGGCGGCAGCCUUCGGUGGCGCGAUAGCGCCAACGUUCGCAACUAUGACACGCAAAACGCGUGCUCCGUUGAAUGGAGUGUAUCAUG [U104G U145G], with -0.945; and GGAUCUUCUCGAUCUAACAAAAGAGACAAAUCUGCCACAACGCCUGAGCGCAUCUUCCGAUGCCGAGGCGGCAGCCUUCGGUGGUGCGAUAGCGCCAACGUUCUCAACUAUGACACGCAAAACGCGUGCUCCGUUGAGUGGAGUUUAUCAUG [A23G A41C U44C A49C G58C A64C C85U A138G], with no more than -4.2; and GGAUCUUCUCGAUCUAACAAAAAAGACAAAUCUGCCACAAAGCUUGAGAGCAUCUUCGGAUGCAGAGGGGGCAGCCUUCGGUGGCGCGAUAGCGCCAACGUUCUCAAUUAUGACACGCAAAACGCGUGCUCCGUUGAAUGGAGUUUAACAUG [C69G C108U U148A], with no more than -4.2.

The values are drawn from the RNAGym collection of RNA variant scans (doi:10.1073/pnas.2313332121).
